# From the MegaScale stability set (Tsuboyama et al. 2023)
# B1: HHH_rd1_0493 (parent)
# chain: RDEDEKEKIKEALKRGNEDKAKEIAKRANVSPEEYERLRKEAE
# Variants of: B1
# Experiment: folding stability dG (cDNA display proteolysis); higher = more stable
# Settings: PBS, room temperature
row,Variant,folding stability dG [kcal/mol]
1,RDEDEKEKKKEALKRGNEDKAKEIAKRANVSPEEYERLRKEAE,0.396
2,RDEDEKEKWKEALKRGNEDKAKEIAKRANVSPEEYERLRKEAE,0.614
3,RDEDEKEKHKEALKRGNEDKAKEIAKRANVSPEEYERLRKEAE,0.471
4,RDEDEKEKIKEALKRGNEDKAKEIAKRANVSPEAYERLRKEAE,1.69
5,RDEDEKEKIKEALKRGNEDKAKEIAKRANVSPEEYERLRKEAT,2.65
6,RDEDEKEKIKEALKRGNEDKAKEIAKRANVSPEEYERLRKEAK,2.64
7,RDEDEKEKIKEALKRGNEDKASEIAKRANVSPEEYERLRKEAE,2.2
8,RDEDEKEKIKEALKRGNEDKAWEIAKRANVSPEEYERLRKEAE,2.75
9,RDEDEKEKIKEALKRGNEDKACEIAKRANVSPEEYERLRKEAE,1.79
10,RDEDEKEKIKEALKRGNEDMAKEIAKRANVSPEEYERLRKEAE,3.37
11,RDEDEKEKIKEALKRGNEDPAKEIAKRANVSPEEYERLRKEAE,0.93
12,RDEDEKEKIKEALKRGNPDKAKEIAKRANVSPEEYERLRKEAE,2.48
13,RDEDEKEKIKEALKRGNCDKAKEIAKRANVSPEEYERLRKEAE,2.58
14,RDEDEKEKIKEALKRGNWDKAKEIAKRANVSPEEYERLRKEAE,2.62
15,RDEDEKEKIKEAPKRGNEDKAKEIAKRANVSPEEYERLRKEAE,0.435
16,RDEDEKEKIKEAVKRGNEDKAKEIAKRANVSPEEYERLRKEAE,1.58
17,RDEDEKEKIKEDLKRGNEDKAKEIAKRANVSPEEYERLRKEAE,0.746
18,RDEDEKEKIKEYLKRGNEDKAKEIAKRANVSPEEYERLRKEAE,2.88
19,RDEDEKEKIKEMLKRGNEDKAKEIAKRANVSPEEYERLRKEAE,2.86
20,RDEDEKEKIKEALKRDNEDKAKEIAKRANVSPEEYERLRKEAE,1.47

row,Variant,folding stability dG [kcal/mol]
1,RDEDEKEKIKEALKRYNEDKAKEIAKRANVSPEEYERLRKEAE,0.998
2,RDEDEKEKIKEALKRANEDKAKEIAKRANVSPEEYERLRKEAE,1.67
3,RDEDEKEKIKEALKRNNEDKAKEIAKRANVSPEEYERLRKEAE,1.91
4,RDEDEKEKIKEALKRLNEDKAKEIAKRANVSPEEYERLRKEAE,1.39
5,TDEDEKEKIKEALKRGNEDKAKEIAKRANVSPEEYERLRKEAE,3.28
6,ADEDEKEKIKEALKRGNEDKAKEIAKRANVSPEEYERLRKEAE,3.23
7,DDEDEKEKIKEALKRGNEDKAKEIAKRANVSPEEYERLRKEAE,3.13
8,WDEDEKEKIKEALKRGNEDKAKEIAKRANVSPEEYERLRKEAE,3.04
9,RDEDEKEKIKEALKRGNEDKAKEIAWRANVSPEEYERLRKEAE,2.01
10,RDEDEKEKIKEALKRGNEDKAKEIAARANVSPEEYERLRKEAE,3.03
11,RDEDEKEKIKEALKRGNEDKAKEIATRANVSPEEYERLRKEAE,2.79
12,RDEDEKEKIKEALKRGNEDKAKEIAFRANVSPEEYERLRKEAE,2.47
13,RDEDEKEKIKEALKRGNEDKAKEIAQRANVSPEEYERLRKEAE,2.99
14,RDEDEKEKIKEALKRGNEDKAKEIAKRAHVSPEEYERLRKEAE,2.67
15,RDEDEKEKIKEALKRGNEDKAKEIAKRACVSPEEYERLRKEAE,1.83
16,RDEDEKEKIKEALKRGNEDKAKEIAKRANVSPEEYERHRKEAE,0.352
17,RDEDEKEKIKEALKRGNEDKAKEIAKRANVSPEEYERFRKEAE,1.58
18,RDEDEKEKIKEALKRGNEDKAKEIAKRANVSPEEYERLPKEAE,0.097
19,RDEDEKEKIKEALKRGNEDKAKEIAKRANVSPEEYERLMKEAE,2.1
20,RDEDEKEKIKEALKRGNEDKAKEIAKRRNVSPEEYERLRKEAE,1.84

row,Variant,folding stability dG [kcal/mol]
1,RDEDEKEKIKEALKRGNEDKAKEIAKRNNVSPEEYERLRKEAE,2.9
2,RDEDEKEKIKEALKRGNEDKAKEIAKRANVSPEEYERLRGEAE,2.62
3,RDEDEKEKIKEALKRGNEDKAKEIAKRANVSPEEYERLRWEAE,3.23
4,RDEDEKEKIKEALKRGNEDKAKEIAKRANVSPEEYERLRNEAE,2.72
5,RDEDEKEKIKEALKRGNEDKAKFIAKRANVSPEEYERLRKEAE,1.7
6,RDEDEKEKIKEALKRGNEDKAKQIAKRANVSPEEYERLRKEAE,2.73
7,RDEDEKEKIKEALKRGNEDKAKIIAKRANVSPEEYERLRKEAE,2.35
8,RDEDEKEKIKEALKRGNEDKAKCIAKRANVSPEEYERLRKEAE,2.49
9,RDEDEKEKIKEALKRGNEDKAKKIAKRANVSPEEYERLRKEAE,2.26
10,RVEDEKEKIKEALKRGNEDKAKEIAKRANVSPEEYERLRKEAE,3.17
11,RFEDEKEKIKEALKRGNEDKAKEIAKRANVSPEEYERLRKEAE,3.22
12,RDEDEEEKIKEALKRGNEDKAKEIAKRANVSPEEYERLRKEAE,2.27
13,RDEDEVEKIKEALKRGNEDKAKEIAKRANVSPEEYERLRKEAE,2.74
14,RDEDECEKIKEALKRGNEDKAKEIAKRANVSPEEYERLRKEAE,1.8
15,RDEDEREKIKEALKRGNEDKAKEIAKRANVSPEEYERLRKEAE,3.3
16,RDEDEKEKIKEALKRGNEDKAKEIAKRANVHPEEYERLRKEAE,1.95
17,RDEDEKEKIKEALKRGNEDKAKEIAKRANVQPEEYERLRKEAE,2.19
18,RDEDEKEKIKEALKRGNEDKAKEIAKRANVIPEEYERLRKEAE,1.44
19,RDEDEKEKIKEALKRGNEDKAKEIAKRANVWPEEYERLRKEAE,1.27
